The labels stand for the following.
B1: XENP32853 (bispecific antibody)
heavy 1: QVQLVQSGAEVKKPGASVKVSCKASGYTFTSYWMHWVRQAPGQGLEWMGMIHPNSDNTIYYEKFQGRVTMTVDKSISTAYMELSRLRSDDTAVYYCAIIITPVVPKFDYWGQGTLVTVSSASTKGPSVFPLAPSSKSTSGGTAALGCLVKDYFPEPVTVSWNSGALTSGVHTFPAVLQSSGLYSLSSVVTVPSSSLGTQTYICNVNHKPSDTKVDKKVEPKSCDKTHTCPPCPAPPVAGPSVFLFPPKPKDTLMISRTPEVTCVVVDVKHEDPEVKFNWYVDGVEVHNAKTKPREEEYNSTYRVVSVLTVLHQDWLNGKEYKCKVSNKALPAPIEKTISKAKGQPREPQVYTLPPSREEMTKNQVSLTCDVSGFYPSDIAVEWESDGQPENNYKTTPPVLDSDGSFFLYSKLTVDKSRWEQGDVFSCSVMHEALHNHYTQKSLSLSPGK
heavy 2: QVQLVQSGAEVKKPGASVKVSCKASGYTFTSYWMHWVRQAPGQGLEWMGMIHPNSDNTIYYEKFQGRVTMTVDKSISTAYMELSRLRSDDTAVYYCAIIITPVVPKFDYWGQGTLVTVSSASTKGPSVFPLAPSSKSTSGGTAALGCLVKDYFPEPVTVSWNSGALTSGVHTFPAVLQSSGLYSLSSVVTVPSSSLGTQTYICNVNHKPSNTKVDKKVEPKSCGGGGSGGGGSQAVVTQEPSLTVSPGGTVTLTCGSSTGAVTTSNYANWVQQKPGKSPRGLIGGTNKRAPGVPARFSGSLLGGKAALTISGAQPEDEADYYCALWYSNHWVFGGGTKLTVLGKPGSGKPGSGKPGSGKPGSEVQLVESGGGLVQPGGSLRLSCAASGFTFSTYAMNWVRQAPGKGLEWVGRIRSKYNNYATYYADSVKGRFTISRDDSKNTLYLQMNSLRAEDTAVYYCVRHGNFGDEYVSWFAYWGQGTLVTVSSEPKSSDKTHTCPPCPAPPVAGPSVFLFPPKPKDTLMISRTPEVTCVVVDVKHEDPEVKFNWYVDGVEVHNAKTKPREEQYNSTYRVVSVLTVLHQDWLNGKEYKCKVSNKALPAPIEKTISKAKGQPREPQVYTLPPSREQMTKNQVKLTCLVKGFYPSDIAVEWESNGQPENNYKTTPPVLDSDGSFFLYSKLTVDKSRWQQGNVFSCSVMHEALHNHYTQKSLSLSPGK
light: DIVMTQSPDSLAVSLGERATINCKASHDVGTSVAWYQQKPGQSPKLLIYWASTRHTGVPDRFTGSGSGTDFTLTISSLQAEDVAVYFCQQYYSYPLTFGAGTKLEIKRTVAAPSVFIFPPSDEQLKSGTASVVCLLNNFYPREAKVQWKVDNALQSGNSQESVTEQDSKDSTYSLSSTLTLSKADYEKHKVYACEVTHQGLSSPVTKSFNRGEC
notes: 2+1 Fab2-scFv-Fc; copies: 1 + 1 + 2
B2: XENP32852 (bispecific antibody)
heavy 1: B1 heavy 1
heavy 2: QVQLVQSGAEVKKPGASVKVSCKASGYTFTSYWMHWVRQAPGQGLEWMGMIHPNSDNTIYYEKFQGRVTMTVDKSISTAYMELSRLRSDDTAVYYCAIIITPVVPKFDYWGQGTLVTVSSASTKGPSVFPLAPSSKSTSGGTAALGCLVKDYFPEPVTVSWNSGALTSGVHTFPAVLQSSGLYSLSSVVTVPSSSLGTQTYICNVNHKPSNTKVDKKVEPKSCGGGGSGGGGSQAVVTQEPSLTVSPGGTVTLTCGSSTGAVTTSNYANWVQQKPGKSPRGLIGGTNKRAPGVPARFSGSLLGGKAALTISGAQPEDEADYYCALWYSNHWVFGGGTKLTVLGKPGSGKPGSGKPGSGKPGSEVQLVESGGGLVQPGGSLRLSCAASGFTFSTYAMNWVRQAPGKGLEWVGRIRSKANNYATYYADSVKGRFTISRDDSKNTLYLQMNSLRAEDTAVYYCVRHGNFGDSYVSWFAYWGQGTLVTVSSGGGGSGGGGSKTHTCPPCPAPPVAGPSVFLFPPKPKDTLMISRTPEVTCVVVDVKHEDPEVKFNWYVDGVEVHNAKTKPREEQYNSTYRVVSVLTVLHQDWLNGKEYKCKVSNKALPAPIEKTISKAKGQPREPQVYTLPPSREQMTKNQVKLTCLVKGFYPSDIAVEWESNGQPENNYKTTPPVLDSDGSFFLYSKLTVDKSRWQQGNVFSCSVMHEALHNHYTQKSLSLSPGK
light: B1 light
notes: as for B1
B3: XENP32748 (bispecific antibody)
heavy 1: B1 heavy 1
heavy 2: B2 heavy 2
light: B1 light with G30L, Y92S
notes: 2+1 Fab2-scFv-Fc
B4: XENP32561 (bispecific antibody)
heavy: B1 heavy 1
scFv-Fc: not shown
light: B1 light with D28S, Y92S
notes: 1+1 Fab-scFv-Fc
B5: XENP32751 (bispecific antibody)
heavy: B1 heavy 1
Fab-scFv-Fc: B2 heavy 2
light: B1 light with S32Y, Y92S
notes: as for B1
B6: XENP32562 (bispecific antibody)
heavy: B1 heavy 1
scFv-Fc: not shown
light: B1 light with G30L, Y92S
notes: 1+1 Fab-scFv-Fc
B7: XENP32552 (bispecific antibody)
heavy: B1 heavy 1 with M50W
scFv-Fc: not shown
light: B1 light with Y92S
notes: 1+1 Fab-scFv-Fc
B8: MESO-C[MSLN]_H1_L1.9 (Fab, V domains shown)
VH: QVQLVQSGAEVKKPGASVKVSCKASGYTFTSYWMHWVRQAPGQGLEWMGMIHPNSDNTIYYEKFQGRVTMTVDKSISTAYMELSRLRSDDTAVYYCAIIITPVVPKFDYWGQGTLVTVSS
VL: DIVMTQSPDSLAVSLGERATINCKASHDVGTSVAWYQQKPGQSPKLLIYWASTRHTGVPDRFTGSGSGTDFTLTISSLQAEDVAVYFCQQYYSYPLTFGAGTKLEIK
notes: It was tested as the Fab arm(s) of anti-MSLN x anti-CD3 bsAbs
B9: MESO-C[MSLN]_H1.3_L1 (Fab, V domains shown)
VH: B8 VH with M50W
VL: B8 VL with Y92S
notes: as for B8
B10: MESO-C[MSLN]_H1_L1.5 (Fab, V domains shown)
VH: B8 VH
VL: B8 VL with S32Y, Y92S
notes: as for B8
B11: MESO-C[MSLN]_H1.12_L1.9 (Fab, V domains shown)
VH: B8 VH with E62Q
VL: B8 VL
notes: as for B8

Positions count from the first letter of the chain named.

T1 sequence (Q13421 other isoform, or with tags, fused parts or gaps limits assumed): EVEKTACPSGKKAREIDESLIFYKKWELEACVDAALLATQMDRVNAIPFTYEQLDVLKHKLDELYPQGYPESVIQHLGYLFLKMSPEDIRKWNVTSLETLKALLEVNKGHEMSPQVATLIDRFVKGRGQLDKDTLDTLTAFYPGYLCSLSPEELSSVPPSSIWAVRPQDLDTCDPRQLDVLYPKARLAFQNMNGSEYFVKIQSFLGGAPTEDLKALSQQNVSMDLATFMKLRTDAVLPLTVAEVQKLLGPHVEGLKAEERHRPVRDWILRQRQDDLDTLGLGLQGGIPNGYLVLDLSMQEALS

One assay has as its target T1, MSLN on OVCAR8 (MSLN^high) and other cancer cell lines (UniProt Q13421 296-598).
T1 construct: whole, on cells; Endogenous surface MSLN; also called MSLN^high OVCAR8 cells; MSLN^low SKOV3 and HT29 cells
Briefly: flow cytometry on OVCAR8 cells, detected with A647-labelled anti-human Fc mAb. The protocol:
Next, the effect of MSLN binding affinity was investigated. 100,000 OVCAR8 (MSLN^high) cells were treated with the indicated concentrations of the indicated test articles. […] Further, XENP32852 and XENP32853 which differ only in CD3 binding affinity have identical binding to OVCAR8 cells confirming that avid binding is due to the MSLN binding domain.
For B1, the “EC50 (read off the curve)” value was around 0.06 µg/mL.

For the molecule B2, the “EC50 (read off the curve)” value is around 0.06 µg/mL.

For B3, the “EC50 (read off the curve)” value is around 0.04 µg/mL.

In the case of B4, the “EC50 (read off the curve)” value is around 0.2 µg/mL.

As to B5, the “EC50 (read off the curve)” value is around 0.05 µg/mL.

As to B6, the “EC50 (read off the curve)” value was around 0.2 µg/mL.

The target of the next assay is T2, human MSLN antigen (human, UniProt Q13421 296-580, limits assumed).
T2 construct: Soluble antigen for BLI; also called Mesothelin; MESO
T2 sequence (Q13421 other isoform, or with tags, fused parts or gaps limits assumed): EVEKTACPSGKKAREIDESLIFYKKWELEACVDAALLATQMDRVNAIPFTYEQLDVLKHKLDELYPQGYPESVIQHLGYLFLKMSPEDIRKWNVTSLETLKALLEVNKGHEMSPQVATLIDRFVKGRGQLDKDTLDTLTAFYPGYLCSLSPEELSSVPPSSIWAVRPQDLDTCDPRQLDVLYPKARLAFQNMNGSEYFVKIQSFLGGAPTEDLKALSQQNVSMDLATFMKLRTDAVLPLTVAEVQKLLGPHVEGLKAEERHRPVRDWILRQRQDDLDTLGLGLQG
Put plainly: Octet BLI on human MSLN antigen (Example 2B(a)); KD quoted in the FIG. 35 legend. An excerpt:
(§1) Variants of MESO-C were engineered by introducing point substitutions into the variable heavy region (VH) and the variable light region (VL) to generate 11 VH variants and 16 VL variants (sequences for which are depicted in FIG. 18 as H1.1-H1.13 and in FIG. 19 as L1.1-L1.18). An additional 4 VL variants were generated by combining useful point substitutions (sequences for which are depicted in FIG. 19 as L1.19-L1.22). WT and variant variable heavy regions were paired with WT and variant variable light regions to generate variant variable regions (Fvs) which were produced in the context of anti-MSLN×anti-CD3 bispecific antibodies. The bispecific antibodies were screened for MSLN binding affinity using Octet®, a BioLayer Interferometry (BLI)-based method. Experimental steps for Octet® generally include the following: Immobilization (capture of ligand to a biosensor); Association (dipping of ligand-coated biosensors into wells containing the analyte); and Dissociation (returning of biosensors to well containing buffer). In an initial screening, anti-human Fc sensors were used to capture the bispecific mAbs and dipped into human MSLN antigen (one concentration to screen large library). The resulting dissociation constant of illustrative variants (KD), association rate (kₐ), dissociation rate (kd), as well as sensorgram response are depicted in FIG. 20. In further screening of favorite variants identified in the initial screen (and combination variants), bispecific mAbs were dipped into multiple concentrations of human MSLN antigen, data for which are depicted in FIG. 21 (from various screens).
Regarding B7, the Kd worked out at 9.2 nM.

As to B1, the Kd worked out at 3.9 nM.

Regarding B2, the Kd came to 3.9 nM.

For B3, the Kd came out at 0.74 nM.

With B4, the Kd came to 0.45 nM.

Consider B5, for which the Kd is around 12.8 nM.

With B6, the Kd turned out to be 0.74 nM.

The target in a further assay is T3, cyno MSLN (Macaca fascicularis (cynomolgus)).
T3 construct: soluble antigen for Octet; also called cynomolgus MSLN
Briefly: Octet BLI; bsAb on anti-human Fc sensor, cyno MSLN as analyte, one concentration.
Molecule B7 registered a Kd of 32.1 nM, a Response of 0.827, a koff of 0.0148 s⁻¹ and a kon of 459000 M⁻¹ s⁻¹.

Molecule B4 came in with a Kd of 0.413 nM, a Response of 0.976, a koff of 0.000248 s⁻¹ and a kon of 600000 M⁻¹ s⁻¹.

B6 came in with a Kd of 0.887 nM, a Response of 0.9, a koff of 0.000594 s⁻¹ and a kon of 669000 M⁻¹ s⁻¹.

Another assay deals with T2, human MSLN antigen. Briefly: Octet BLI; bsAb on anti-human Fc sensor, human MSLN as analyte, one concentration.
Text: as §1
Turning to B7, the Kd is 30 nM, the Response was determined as 0.915, the koff is 0.0147 s⁻¹ and the kon was 491000 M⁻¹ s⁻¹.

Take B4: the Kd amounted to 0.355 nM, the Response was 1.08, the koff was 0.000215 s⁻¹ and the kon was 606000 M⁻¹ s⁻¹.

With B6, the Kd was 0.628 nM, the Response turned out to be 1.01, the dissociation rate constant (koff) was 0.000409 s⁻¹ and the kon was 651000 M⁻¹ s⁻¹.

A further assay has as its target T2, human MSLN antigen. Put plainly: MSLN KD of the binding domain (Octet BLI, Example 2B(a)); quoted in Example 3B(a).
Text: as §1
With B8, the Kd turned out to be 3.9 nM.

In the case of B9, the Kd was 9.2 nM.

As to B10, the Kd is around 12.8 nM.

B11: the equilibrium dissociation constant (Kd) came out at 10.2 nM.

Another assay deals with T3, cyno MSLN. Briefly: Octet BLI, several concentrations; lower table, column head only 'cyno MSLN (M)'.
B7 displayed a Kd of 10 nM.

(Values after patent publication US20240279356A1 (Xencor, published 2024).)
